How the values were obtained:
protein kinase A = test: cell-based or functional assay
[1] = test system: T1, Src-1 optical probe (GEEEIYGEIEK, SEQ. ID. NO: 3)
T1 sequence: GEEEIYGEIEK

[2] = test system: T2, Src-2 optical probe (GEEEIYGVIEK, SEQ. ID. NO: 29), non-phosphorylated
T2 sequence: GEEEIYGVIEK

[3] = test system: T3, phosphorylated Src-2-specific substrate optical probe (SEQ. ID. NO: 29)
T3 sequence: RRFHSRRRR

[4] = test system: T4, phosphorylated abl-specific substrate optical probe (SEQ. I.D. No. 4)
T4 sequence: AEAIYAAPLK

[5] = molecular target: T5, abl-specific substrate optical probe (AEAIYAAPL, SEQ. ID. NO: 4), non-phosphorylated
T5 chain: AEAIYAAPLK

Molecule: PKI (substrate competitive inhibitor of protein kinase A) (peptide)
- 460/530 Emission Ratio, Kinase + the inhibitor PKI (2.8 µM) (negative control 11.67, positive control 2.11) (460/530 emission ratio) (protein kinase A): 11.7

Molecule: Src kinase (Upstate Biotechnology)
- apparent Km (fluorescence measurements after protease incubation) [1]: 11 µM and 19 µM respectively
- apparent Km (fluorescence measurements after protease incubation) [2]: 11 µM and 19 µM respectively

Molecule: protein tyrosine phosphatase-B (PTP-B) agarose (Upstate Biotechnology)
- Kcat/Km (dephosphorylation) [3]: nearly 10^8 M^-1sec^-1
- apparent Km (Michaelis-Menten plot, dephosphorylation) [3]: the apparent Km for the Src-2optical probe is 1.3 µM
- kcat (dephosphorylation) [3]: the kcat is 79 sec^-1
- relative rate of dephosphorylation [3]: the Src-2 substrate is more readily de-phosphorylated than the abl substrate
- relative rate of dephosphorylation [4]: the Src-2 substrate is more readily de-phosphorylated than the abl substrate

B1: Recombinant v-Abl kinase (protein)
chain: YITPVNSLEKHSWYHGPVSRNAAEYLLSSGINGSFLVRESESSPGQRSISLRYEGRVYHYRINTASDGKLYVSSESRFNTLAELVHHHSTVADGLITTLHYPAPKRNKPTIYGVSPNYDKWEMERTDITMKHKLGGGQYGEVYEGVWKKYSLTVAVKTLKEDTMEVEEFLKEAAVMKEIKHPNLVQLLGVCTREPPFYIITEFMTYGNLLDYLRECNRQEVSAVVLLYMATQISSAMEYLEKKNFIHRDLAARNCLVGENHLVKVADFGLSRLMTGDTYTAHAGAKFPIKWTAPESLAYNKFSIKSDVWAFGVLLWEIATYGMSPYPGIDLSQVYELLEKDYRMERPEGCPEKVYELMRACWQWNPSDRPSFAEIHQAFETMFQESSISDEVEKELGKRGTRG
- apparent Km for the substrate (kinetics of phosphorylation, FRET/chymotrypsin read-out) [5]: apparent Km for the substrate of 40 µM
- turnover (kcat) of the optical probe [5]: The turnover of the optical probe by v-Abl was 9.5 sec^-1

— patent US20030087328A1
